Assay: yeast display, Sf9 membrane polyspecificity reagent, FACS + sequencing; frameworks hold sequencing errors
In short: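 A nanobody's polyreactivity label depends on the gate it was sorted from. Yeast display cells were stained with 10% biotinylated, detergent-solubilized Sf9 membrane reagent for 1 hour at 4 °C, enriched on streptavidin microbeads and sorted by FACS. The low and high (top ~1%) gates were set on anti-HA fluorescence for expression and streptavidin fluorescence for reagent binding.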

Sequence | polyreactivity (PSR sort gate)
QVQLVESGGGLVQAGGSLRLICAASGSIFDYNAMGWYRQAPGKERELVAAITSTDSTYADSVKGRFTISRDNAKNTVYLQMNSLKPEDTAVYYCNARYLAWTYYYPYDYWGQGTQVTVSS | low polyreactivity
QVQLVESGVGLVQAGGSLRLSCAASGSIFATNDMGWYRQAPGKERELVASISSGGGSTYYADSVKGRFTISRDNAKNTVYFQMNSLKPEDTAVYYCAADRGDTYTTDYDYWGQGTQVTLSS | low polyreactivity
EVQLVESGGGLVQAGGSLRLSCAASGFIFGYNAMGWYRQAPGKERDLVAAISWSGGSTYYADSVKGRYTISRDNAKNTVYLQMNSLKPEDTAVYYCNRGYTAQVFTEFDYWGQGTLVTVSS | low polyreactivity
QVQLVESGGGLVQAGGSLRLSCAASGRIFSINTMGWYRQAPGKERELVAAISVSGGRTYYADSVKGRFTISRENAKKSVYVQMNSLKPEVTAGYYCGAYGTTRMDYWGQGTQVTVSS | high polyreactivity
QVQLVESGGGLVQAGGSLRLSCAASGFIFRHYAMGWYRQAPGKEREFVAAISYRGDSTYYADSVKGRFTISRDNAKNTVYLQMNSLKPEDTAVYYCAATYVSSAYYSYDYWGQGTQVTVSS | high polyreactivity
QVQLVESGGGLDQAGGRLRLSCAASGFTIRDNAMGWYRQAPGKEMELVAAISRSGDSTNYADSVKGRFTISRDNAKNTVYLQMNSLKPEDTAVYYSAAKRRYTTYDYWGQGTLVTVSS | high polyreactivity
QVQLVESGGGLVQAGGSLRLSCAASGFIFYYYTMGWYRQAPGKERELVAAISSGGSTYYADSVKGRFTISRDNAKNTVYLQMNSLKPEDTAVYYCNKRYPSPEYNYWGQGTQVTVSS | high polyreactivity
QVQLVESGGGLVQAGGSLRLSCAASGRTFGAYAMGWYRQAPGKERELVAAIDSGGITYYADSVKGRFTISRDNAKNTVYLQMNSLKPEDTAVYYCAADHRVVTFYEGDYWGQGTQVTVSS | low polyreactivity
QVQLVESGGGLVQAGGSLRLSCAASGRISSQYAMGWYRQAPGKERELVAAISTSGDRTYYADSVKGRFTISRDNAKNTVYLQMNSLKPEDTAVYYCAKDGPYTYGRDIYEYWGQGTQVTVSS | low polyreactivity
QVQLVESGGGLVQAGGSLRLSCAASGSIRYYAMGWYRQAPGKERELVAAISSRGTNTYYADSVKGRFTISRDNAKNTVYLQMNSLKPEDTAVYYCIAVVGLGYNYWGQGTQVTVSS | high polyreactivity
QVQLVESGGGLVQAGGSLRLSCAASGITFAKYAMGWYRQAPGKERELVAAISTSGGSTYYADSVKGRFTISRDNAKNTVYLQMYSLKPEDTAVYYCNVDTYIWYYLRYYNYWGQGTQVTVSS | high polyreactivity
QVQLVESAGGLVQAGGSLRLMCAASGNTLSWYALGWYRQAPGKERELVAVITSGGSTNYADSVKGRFTISRDYAKNTVYLQMNSLKPEDTAVYYCNRRPYGFDEFDYWGQGTQVTVSS | low polyreactivity
QVQLVESGGGLVQAGGSLRLSCAASGSTSYLYAMGWYRQAPGKERELVATITTRSGSTYYADSVKGRFTISRDNAKNTVYLQINSLKPEDTAVYYCAARWISVLSEGAEHDYWGQGTQVTVSS | low polyreactivity
QVQLVESGGGLVQAGGSLRLSCAASGFTFRYYAMGWYRQAPGQERELVAAITRGAGSTYYADSVKGRFTISRDNAKNTDYFQMNSLKPEDTAVYYCAAEFFQYYVATPFDPSNYWGQGTQVTVSS | low polyreactivity
QVQLIESGGGLVQAGGSLRLSCAASGSTCDRNSMGWYRPAPGKERELVAAIDSDVNTYYADSVKGRFTISRDKAKNTVYLQMNSLTPEDTAVYYCAADYYSWPYDYWGQGTQVTVSS | low polyreactivity
QFQLVDSRRGLVQAGGSLRVSCAASGSTFYIYAMGWSRQAPGKERELVARISGSGGSTYYADSVKGRFTISRDNAKNTVYLQMNSLKPEDTAVYYCAADDIYKYYQYYAFPYYRYDDWGQGTQVTVSS | low polyreactivity
QVQLVESGGGLVQAGGSLRLSCAASGSTFWDYAMGWYRPAPGKERELVAAISTSGGSTYYADSVKGRFTISRDNAKNTVYLQMNSLKPEDPAVYYFAAGRVRRRVWYNYWGQGTQVTVSS | high polyreactivity
QVQLVESGGGLVQAGGSLRLSCAASGRIFFRYAMGWYIQAPGKEREFVAAISGSAGSTYYADSVKGRFKISRDNAKNTVYLQMNSLKPEDTAVYYCAARKAKVSNGLKYDYWGQGTQVTVSS | low polyreactivity
QVQLVESGGGIVQAGGRLRKSCAASGRTFDSNAMGWYRQAPGKERELVAGISESGGSTYYADSVKGRFTISRDNAKNTVYLQMNSLKPEDTAVYYCDYSGITVYYHRAVDFIVSYDYWGQGTQVTVSS | low polyreactivity
QVQIVESGGGLVQEGGSLRISCAASGFTFTANAMGWYRQAPGKERELVAAITRNGGRTYYADSVKGRFTISRDNAKNTVYFQMNSLKPEDTAVYYCAKPTSQRIHDDYDYWGQGTQVTVSS | high polyreactivity
QVQLVESGGGLVQAGGSLRLSCAASGNIFTKYAMGWYRQAPGKERELVAAITWSGGSTYYADSVKGRFTISRDNAKNTVDLQMNILKPEDTAVYYCATAHVFRRDKPYDYWGQGTQVTVSS | high polyreactivity
QVQLVESGGGIFQAGGSLRLSCAASGFTFQYYAMGWYRQAPGKERELVAAISRRGGRTDYADSVKGRFTISRDNAKNTVYLQMNSLKPEDTAVYYCAAAVASPYDYWGLGTQVTVSS | high polyreactivity

Sequence | polyreactivity (PSR sort gate)
QVQLVESGGGLVQAGGSLRLSCAASGIIFEGYAMGWYRQAPGKERELVAAISQSGGSTRYADSVKGRFTISRDNAKNTVYLQMNSLKPEDTAVYYCAKLSLSWDGYYQYDYWGQGTQVTVSS | low polyreactivity
QVQLVESGGGLVQAGGSLRLSCAASGSTFSHNAMGWYRQAPGKERELVAAISSDGTTYYADSVKGRFTISRDNAKNTVYLQMNSLKPEDTAVYYCNKTRWTQRTSFDYWGQGTQVTVSS | low polyreactivity
QVQLVESGRGLVQAGGSLRLSCAASGSIFIYYAMGWYRQAPGKERELVAAISFSGARTYYADSVKGRFTISRDNAKNTVYLQMNSLKPEDTAVYYCNGARYSRRWPSEYWGQGTQVTVSS | low polyreactivity
QVQLVESGGGLVQAGGSLRLSCAASGSIFWTYAMGWYRQAPGKERELVAAITTGGSTYYADSVKGRFTISRDNAKNTVYLQMNSLKPEDTAVYYCAVDHLTRSGDGEYWGQGTQVTVSS | high polyreactivity
QVQLVESGGGLVQAGGSLRLSCAASGFIFWDNTMGWYRQAPGKERELVAAISGGDGTYYADSVKGRFTISRDNAKNTVYLQLNSLKPEDTAVYYCNAATAEVKLYGKYDYWGQGTQVTVSS | low polyreactivity
QVQLQESGCGLVQAGGCLSCTASGTIFGQGDMGWYRQAPGKERELVATINDGASTYYADSVKGRFTISRDKAKNTVYLQMNSLKPEDTAVYYCAAVIRPRYYQVRPRYDYWGQGTQVTVSS | low polyreactivity
QVQLVESGGGLVQAGGSLRLSCAASGRTFLGYTMGWYRQAPGKEREFVAAITFSGDSTYYADSVKGRFTISRDNAKNTVYLQMNSLKPEDTAVYYCAARKKYYTYLFYYWGQGTQVTVSS | high polyreactivity
QVQLVESGGGLVQAGGSLRLSCAASGNTFTWYTMGWYRQAPGKERELVAVITSDGSTYYADSVKGRFTISRDNAKNTVYLQMNSLKPEDTAVYYCNALSADWYPEEDYWGQGTQVTVSS | low polyreactivity
QVQLVESGGGLVQAGGSLRLSCAASGNTFGENAMGWYRQAPWKERELVAAISNGGTTNYADSVKGRFTISRDNAKNTVYLQMNSLKPEDTAVYYSNAKFGISQPGHSGLLKMDYWGQGTQVTVSS | low polyreactivity
QVQLVESGGGLVQAGGSLRLSFAASGSIFASNTMGWNSPEPGKERELVAAISSNGGSTYYADSVKGRFTISRDNAKNTFYLQMNSLKPEDTGVYYCNAELSTSELGGMYSWGQGTQVTVSS | low polyreactivity
QVQLVESGGGLVQAGGSLRLSCAASGSIFRGYVRGWYRQAPGKERELVAAITWSTGSTYYADSVKGRFTISRDNAKNTVYLQMNSLKPEDTAVYYCAAVRRWAANRYQSGVTGNYWGQGTKVTVSS | high polyreactivity
QVQLVESGGGLVQAGGSLRLSCAASGRIFYYNVMGWYRQAPGKERELVADIRSGDRTYYADSVKGRFTISRDNAKNTVYLQMNSLKPEDTAVYYCAADGWYRRGYYYWGQGTQVTVSS | low polyreactivity
QVQLVESGGGIVQAGGSLRLSCAGSGRTFLWNAMGWYRQAPGKERELVARINLSGGRTYYADSVKGRFTISRDNAKKTVNLQMNSLKPEDTAFYYCAATVVRYRRDSWGQGTQVTVSS | low polyreactivity
QVQLEESGGGLVQAGGSLSLSCAASGSTFDNYAMGWYRKAPGKERELVADITWSGGSTYYADSVKGRFTISRDNAQNSVYLQMNSLKAEDTAVYYCNTAGYYTKYDYWGQGTQVTVSS | low polyreactivity
QVQLVESGGGLVQAGGSLLLSCAASGRIFIDYAMGLYRQAPGKERELVATISESGGTTYYADSVKGRFTISRDNGKNTVYLQMNSLKPEDTAVYYCAAKRLCRPYDYWGQGTQVTVSS | low polyreactivity
QVQLVESGGGLVQARGSLRLSCAASGRIFKRYTMGWYTQAPGKKRELVATISSGDSTTYADSVKGRFTISRDNAKNTVYLQMNSLKQEDTAVYYCAAVWPGGSRRGDVVALNYWGQGTQVTVSS | high polyreactivity
QVQLVESGGGLVQAGGSLRLSCAASGGIFTGYAMGWYRQAPGKERELVASITISGGRTYYADSVKGRFTISRDNAKNTVYLQINSLKPEDTAVYYCAATIPWYKYRYYYWGQGTQVTVSS | high polyreactivity
QVQLVESGGGLVQAGGSLRLSCAASGSIFDGNGMGWSRQAPGKERELVASISGDGSTNYADSVKGRFTISRDNAKNTVYLQMNSLKPEDTAVYYCATDDPLSQINEQGMDYWGQGTQVTVSS | low polyreactivity
QVQLVESGGGLVQAGGSLRLSCAASGSTFGYYTMGWYRQAPGKERELVAAITKSGGGTYYADSVKGRFTISRDNAKNTVYLQMNSLKPEDTAVYYCNALYDYYDPYGSWGQGTQVTVSS | high polyreactivity
QVQLVESGGGLVQAGGSLRLSCAASGLTFWYYAMGWYRQAPGKERELVAAITISGGSTYYADSVKGRFTISRDNAKNTVYLQMNRLQPEDTAVYYCAKTFSYTGRYWGYDYWGKGTQVTVSS | high polyreactivity
QVQLVESGGGLVQAGGSLRLSCAASGNTFVYYNMGWYRQAPGKERELVAAINWSGGSTYYADSVKGRFTISRDNAKNTVYLQMNSLKPEDTAVYYCAADTSYYPYEYWGQGTQVTVSS | high polyreactivity

From the nanobody polyreactivity screen of Harvey et al. (2022)
